Assay results taken from paper PMC2699511.

Biological target: GST-Vif wild type (HIV-1, UniProt P69723 1-192)
Experiment: EMSA

Sequence of GST-Vif wild type (P69723 whole entry): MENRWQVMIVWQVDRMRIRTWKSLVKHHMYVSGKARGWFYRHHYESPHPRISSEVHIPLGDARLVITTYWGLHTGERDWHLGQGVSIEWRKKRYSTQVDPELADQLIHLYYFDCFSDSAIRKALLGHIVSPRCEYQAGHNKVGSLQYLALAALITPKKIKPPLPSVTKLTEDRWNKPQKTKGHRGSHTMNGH

AAAAAAAAAAAAAAAAAAAAAAAAAAAAAAAAAAAAAAAA (ssRNA) [poly(rA40)]
binding result: binds
